Laboratory results taken from IntAct's records for PubMed 16286470.

B1: Dual specificity protein phosphatase 1 (Homo sapiens), P28562 (parent)
chain: MVMEVGTLDAGGLRALLGERAAQCLLLDCRSFFAFNAGHIAGSVNVRFSTIVRRRAKGAMGLEHIVPNAELRGRLLAGAYHAVVLLDERSAALDGAKRDGTLALAAGALCREARAAQVFFLKGGYEAFSASCPELCSKQSTPMGLSLPLSTSVPDSAESGCSSCSTPLYDQGGPVEILPFLYLGSAYHASRKDMLDALGITALINVSANCPNHFEGHYQYKSIPVEDNHKADISSWFNEAIDFIDSIKNAGGRVFVHCQAGISRSATICLAYLMRTNRVKLDEAFEFVKQRRSIISPNFSFMGQLLQFESQVLAPHCSAEAGSPAMAVLDRGTSTTTVFNFPVSIPVHSTNSALSYLQSPITTSPSC

Variants of: B1
Details: with ubb_human UBB

Row | effect of a mutation on the interaction | Variant
1 | decreasing interaction | S296A
2 | decreasing interaction | S323A
3 | decreasing interaction | F339A;F341A

Variants of: B1
Details: with skp2_human SKP2, Q13309
Chain of skp2_human SKP2, Q13309 (Q13309 whole entry): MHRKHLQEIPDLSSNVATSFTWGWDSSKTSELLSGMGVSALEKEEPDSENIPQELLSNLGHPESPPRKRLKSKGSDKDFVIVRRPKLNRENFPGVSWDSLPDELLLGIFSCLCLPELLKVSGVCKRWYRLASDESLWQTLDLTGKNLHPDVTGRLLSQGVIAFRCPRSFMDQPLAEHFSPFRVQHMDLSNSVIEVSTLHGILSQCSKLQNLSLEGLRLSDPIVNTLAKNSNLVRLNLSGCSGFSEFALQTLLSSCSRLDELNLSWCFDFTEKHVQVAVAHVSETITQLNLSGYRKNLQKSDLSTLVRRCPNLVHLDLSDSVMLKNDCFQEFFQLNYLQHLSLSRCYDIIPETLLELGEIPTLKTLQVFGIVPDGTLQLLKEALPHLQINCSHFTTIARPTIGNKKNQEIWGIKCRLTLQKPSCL

Row | effect of a mutation on the interaction | Variant
4 | decreasing interaction | S296A
